Experimental data reported in patent US20090022687A1, “Novel Pharmaceuticals That Use Anti-HLA Antibodies” (Chugai Seiyaku Kabushiki Kaisha, priority 2005, published 2009).

Columns and labels:
Format in all cases: binding, human
HLA-A on CD34+ cells = assay: Two-color flow cytometry of a peripheral blood stem cell collection; settings: CD34+ cells in a peripheral blood stem cell collection, n=3
[1] = test system: HLA class I on IM-9 cells; assay: Cell surface expression analysis of HLA class I by flow cytometry; settings: IM-9, B-lymphoblastic cells; FITC-labeled mAb
Method: (§1) Reactivity of 2D7 mAb in tumor cell lines and myeloma cells derived from multiple myeloma patients were assessed by flow cytometry.
(§2) The tumor cell lines used were prepared as follows. The myeloma cell line RPMI 8226, B lymphoblastic cell lines (IM-9, Raji, H S-Sultan, and Daudi), the T lymphoblastic cell line CEM, the chronic myeloid leukemia cell line K562, the lung adenocarcinoma cell line A549, the colon adenocarcinoma cell line COLO 201, and the gastric adenocarcinoma cell line MKN-1 were obtained from the Health Science Resources Bank (Osaka, Japan). The myeloma cell line U266-B1, the B lymphoblastic cell line ARH-77, the T-lymphoblastic cell line Jurkat the breast cancer cell line MCF-7, the hepatocellular carcinoma HepG2, the clear cell renal cell carcinoma Caki-2, and the malignant melanoma MeWo were obtained from the American Type Culture Collection (Manassas, Va.). The EBV-transformed B-cell line YN was a gift from Dr. Yasuhiko Nishioka (The University of Tokushima). These cell lines were cultured in an RPM-1640 medium (Sigma-Aldrich, St. Louis, Mo.) supplemented with 10% fetal calf serum (Gibco BRL, Grand Island, N.Y.) and penicillin (100 U/mL) under a humidified atmosphere of 5% CO2 at 37° C.
(§3) Cell surface expression analysis of HLA class I by flow cytometry was performed as follows using FITC-labeled 2D7 mAb or FITC-labeled anti-HLA-ABC common region mAb (Chemicon, San Diego, Calif.). The cells (5×10^5 cells) were washed twice with PBS, and then incubated on ice for 40 minutes with FITC-labeled 2D7 mAb or FITC-labeled anti-HLA-ABC common region mAb. MM patient-derived BMMCs were incubated on ice for 15 minutes with 2% γ globulin diluted in PBS, and stained with FITC-labeled 2D7 mAb and PE-labeled anti-CD38 mAb (BD Bioscience, San Jose, Calif.) for myeloma cell gating. Next, the cells were washed twice with PBS, and analyzed using an EPICS XL flow cytometer (Beckman Coulter, Japan). In several experiments, the cells were stimulated for 48 hours with IFNα or IFNγ prior to HLA class I expression analysis. HLA class I expression levels were evaluated as GeoMFI using the CellQuest software (BID Biosciences).

[2] = test system: HLA class I on Jurkat cells; assay: as above; settings: T-lymphoblastic cells, FITC-labeled mAb
Method: as §1, §2, §3

[3] = test system: HLA class I on A549 cells; assay: as above; settings: A549, lung adenocarcinoma cells; FITC-labeled mAb
Method: as §1, §2, §3

[4] = test system: HLA class I on MCF-7 cells; assay: as above; settings: MCF-7, breast cancer cells; FITC-labeled mAb
Method: as §1, §2, §3

[5] = test system: HLA class I on Raji cells; assay: as above; settings: B-lymphoblastic cells, FITC-labeled mAb
Method: as §1, §2, §3

HLA class I on CEM cells = assay: as above; settings: T-lymphoblastic cells, FITC-labeled mAb
Method: as §1, §2, §3

[6] = test system: HLA class I on COLO 201 cells; assay: as above; settings: COLO 201, colon adenocarcinoma cells; FITC-labeled mAb
Method: as §1, §2, §3

[7] = test system: HLA class I on RPMI 8226 cells; assay: as above; settings: RPMI 8226, myeloma cells; FITC-labeled mAb
Method: as §1, §2, §3

[8] = test system: HLA class I on U266 cells; assay: as above; settings: U266, myeloma cells; FITC-labeled mAb
Method: as §1, §2, §3

[9] = test system: HLA class I on ARH77 cells; assay: as above; settings: ARH77, B-lymphoblastic cells; FITC-labeled mAb
Method: as §1, §2, §3

[10] = test system: HLA class I on HepG2 cells; assay: as above; settings: HepG2, hepatocellular carcinoma; FITC-labeled mAb
Method: as §1, §2, §3

HLA class I on YN cells = assay: as above; settings: EBV-transformed B-cells, FITC-labeled mAb
Method: as §1, §2, §3

[11] = test system: HLA class I on HS-Sultan cells; assay: as above; settings: B-lymphoblastic cells, FITC-labeled mAb
Method: as §1, §2, §3

[12] = test system: HLA class I on K562 cells; assay: as above; settings: K562, chronic myeloid leukemia cells; FITC-labeled mAb
Method: as §1, §2, §3

[13] = test system: HLA class I on Caki-2 cells; assay: as above; settings: Caki-2, clear cell renal cell carcinoma; FITC-labeled mAb
Method: as §1, §2, §3

[14] = test system: HLA class I on MeWo cells; assay: as above; settings: malignant melanoma, FITC-labeled mAb
Method: as §1, §2, §3

[15] = test system: HLA class I on MKN-1 cells; assay: as above; settings: MKN-1, gastric adenocarcinoma cells; FITC-labeled mAb
Method: as §1, §2, §3

B1: 2D7: monoclonal antibody obtained by immunizing human myeloma cells; recognizes HLA class I (HLA-A) (antibody, V domains shown)
VH: QVQLQQSGPELVKPGASVKMSCKASGYTFTDYFIHWVKQRPGQGLEWIGWIFPGDDTTDYNEKFRGKTTLTADKSSSTAYILLSSLTSEDSAMYFCVRSDDFDYWGQGTTLTVSS
VL: QIVLTQSPAIMSASPGEKVTITCSASSSVSYMHWFQQKPGTFPKLWIYSTSNLASGVPTRFSGSGSGTSYSLTISRMEAEDAATYYCQQRTSYPPTFGSGTKLEIK
In the case of B1, the “HLA-A expression, GeoMFI” value (HLA-A on CD34+ cells) is reported as 109±16, the “Expression (geometric mean fluorescence intensity)” value [1] is reported as 662 and the “Expression (geometric mean fluorescence intensity)” value [2] is reported as 111. For the same molecule, the “Expression (geometric mean fluorescence intensity)” value [3] was 37, the “Expression (geometric mean fluorescence intensity)” value [4] was 29 and the “Expression (geometric mean fluorescence intensity)” value [5] was 297. The “Expression (geometric mean fluorescence intensity)” value (HLA class I on CEM cells) was 72, the “Expression (geometric mean fluorescence intensity)” value [6] was 105 and the “Expression (geometric mean fluorescence intensity)” value [7] was 509. For the same molecule, the “Expression (geometric mean fluorescence intensity)” value [8] was 340, the “Expression (geometric mean fluorescence intensity)” value [9] was 3727 and the “Expression (geometric mean fluorescence intensity)” value [10] was 33. For the same molecule, the “Expression (geometric mean fluorescence intensity)” value (HLA class I on YN cells) was 804, the “Expression (geometric mean fluorescence intensity)” value [11] was 285 and the “Expression (geometric mean fluorescence intensity)” value [12] was 11. The “Expression (geometric mean fluorescence intensity)” value [13] was 13, the “Expression (geometric mean fluorescence intensity)” value [14] was 21 and the “Expression (geometric mean fluorescence intensity)” value [15] was 49.
